Assays:
Experiment in all cases: cell-based or functional assay
[1] = molecular target: LRP1 receptors on GM244 human Pompe fibroblasts (human) (UniProt Q07954)
LRP = molecular target: LRP
[2] = molecular target: mannose-6-phosphate receptor on GM244 human fibroblasts (human) (UniProt O00264)
Sequence of mannose-6-phosphate receptor on GM244 human fibroblasts (human) (O00264 whole entry): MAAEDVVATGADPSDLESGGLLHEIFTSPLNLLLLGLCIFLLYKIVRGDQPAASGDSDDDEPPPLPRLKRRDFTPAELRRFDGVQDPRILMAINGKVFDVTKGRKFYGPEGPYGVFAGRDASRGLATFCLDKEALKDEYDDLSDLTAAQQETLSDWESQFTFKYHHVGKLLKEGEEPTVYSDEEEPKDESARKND

Sequence of LRP1 receptors on GM244 human Pompe fibroblasts (human) (Q07954 20-4544): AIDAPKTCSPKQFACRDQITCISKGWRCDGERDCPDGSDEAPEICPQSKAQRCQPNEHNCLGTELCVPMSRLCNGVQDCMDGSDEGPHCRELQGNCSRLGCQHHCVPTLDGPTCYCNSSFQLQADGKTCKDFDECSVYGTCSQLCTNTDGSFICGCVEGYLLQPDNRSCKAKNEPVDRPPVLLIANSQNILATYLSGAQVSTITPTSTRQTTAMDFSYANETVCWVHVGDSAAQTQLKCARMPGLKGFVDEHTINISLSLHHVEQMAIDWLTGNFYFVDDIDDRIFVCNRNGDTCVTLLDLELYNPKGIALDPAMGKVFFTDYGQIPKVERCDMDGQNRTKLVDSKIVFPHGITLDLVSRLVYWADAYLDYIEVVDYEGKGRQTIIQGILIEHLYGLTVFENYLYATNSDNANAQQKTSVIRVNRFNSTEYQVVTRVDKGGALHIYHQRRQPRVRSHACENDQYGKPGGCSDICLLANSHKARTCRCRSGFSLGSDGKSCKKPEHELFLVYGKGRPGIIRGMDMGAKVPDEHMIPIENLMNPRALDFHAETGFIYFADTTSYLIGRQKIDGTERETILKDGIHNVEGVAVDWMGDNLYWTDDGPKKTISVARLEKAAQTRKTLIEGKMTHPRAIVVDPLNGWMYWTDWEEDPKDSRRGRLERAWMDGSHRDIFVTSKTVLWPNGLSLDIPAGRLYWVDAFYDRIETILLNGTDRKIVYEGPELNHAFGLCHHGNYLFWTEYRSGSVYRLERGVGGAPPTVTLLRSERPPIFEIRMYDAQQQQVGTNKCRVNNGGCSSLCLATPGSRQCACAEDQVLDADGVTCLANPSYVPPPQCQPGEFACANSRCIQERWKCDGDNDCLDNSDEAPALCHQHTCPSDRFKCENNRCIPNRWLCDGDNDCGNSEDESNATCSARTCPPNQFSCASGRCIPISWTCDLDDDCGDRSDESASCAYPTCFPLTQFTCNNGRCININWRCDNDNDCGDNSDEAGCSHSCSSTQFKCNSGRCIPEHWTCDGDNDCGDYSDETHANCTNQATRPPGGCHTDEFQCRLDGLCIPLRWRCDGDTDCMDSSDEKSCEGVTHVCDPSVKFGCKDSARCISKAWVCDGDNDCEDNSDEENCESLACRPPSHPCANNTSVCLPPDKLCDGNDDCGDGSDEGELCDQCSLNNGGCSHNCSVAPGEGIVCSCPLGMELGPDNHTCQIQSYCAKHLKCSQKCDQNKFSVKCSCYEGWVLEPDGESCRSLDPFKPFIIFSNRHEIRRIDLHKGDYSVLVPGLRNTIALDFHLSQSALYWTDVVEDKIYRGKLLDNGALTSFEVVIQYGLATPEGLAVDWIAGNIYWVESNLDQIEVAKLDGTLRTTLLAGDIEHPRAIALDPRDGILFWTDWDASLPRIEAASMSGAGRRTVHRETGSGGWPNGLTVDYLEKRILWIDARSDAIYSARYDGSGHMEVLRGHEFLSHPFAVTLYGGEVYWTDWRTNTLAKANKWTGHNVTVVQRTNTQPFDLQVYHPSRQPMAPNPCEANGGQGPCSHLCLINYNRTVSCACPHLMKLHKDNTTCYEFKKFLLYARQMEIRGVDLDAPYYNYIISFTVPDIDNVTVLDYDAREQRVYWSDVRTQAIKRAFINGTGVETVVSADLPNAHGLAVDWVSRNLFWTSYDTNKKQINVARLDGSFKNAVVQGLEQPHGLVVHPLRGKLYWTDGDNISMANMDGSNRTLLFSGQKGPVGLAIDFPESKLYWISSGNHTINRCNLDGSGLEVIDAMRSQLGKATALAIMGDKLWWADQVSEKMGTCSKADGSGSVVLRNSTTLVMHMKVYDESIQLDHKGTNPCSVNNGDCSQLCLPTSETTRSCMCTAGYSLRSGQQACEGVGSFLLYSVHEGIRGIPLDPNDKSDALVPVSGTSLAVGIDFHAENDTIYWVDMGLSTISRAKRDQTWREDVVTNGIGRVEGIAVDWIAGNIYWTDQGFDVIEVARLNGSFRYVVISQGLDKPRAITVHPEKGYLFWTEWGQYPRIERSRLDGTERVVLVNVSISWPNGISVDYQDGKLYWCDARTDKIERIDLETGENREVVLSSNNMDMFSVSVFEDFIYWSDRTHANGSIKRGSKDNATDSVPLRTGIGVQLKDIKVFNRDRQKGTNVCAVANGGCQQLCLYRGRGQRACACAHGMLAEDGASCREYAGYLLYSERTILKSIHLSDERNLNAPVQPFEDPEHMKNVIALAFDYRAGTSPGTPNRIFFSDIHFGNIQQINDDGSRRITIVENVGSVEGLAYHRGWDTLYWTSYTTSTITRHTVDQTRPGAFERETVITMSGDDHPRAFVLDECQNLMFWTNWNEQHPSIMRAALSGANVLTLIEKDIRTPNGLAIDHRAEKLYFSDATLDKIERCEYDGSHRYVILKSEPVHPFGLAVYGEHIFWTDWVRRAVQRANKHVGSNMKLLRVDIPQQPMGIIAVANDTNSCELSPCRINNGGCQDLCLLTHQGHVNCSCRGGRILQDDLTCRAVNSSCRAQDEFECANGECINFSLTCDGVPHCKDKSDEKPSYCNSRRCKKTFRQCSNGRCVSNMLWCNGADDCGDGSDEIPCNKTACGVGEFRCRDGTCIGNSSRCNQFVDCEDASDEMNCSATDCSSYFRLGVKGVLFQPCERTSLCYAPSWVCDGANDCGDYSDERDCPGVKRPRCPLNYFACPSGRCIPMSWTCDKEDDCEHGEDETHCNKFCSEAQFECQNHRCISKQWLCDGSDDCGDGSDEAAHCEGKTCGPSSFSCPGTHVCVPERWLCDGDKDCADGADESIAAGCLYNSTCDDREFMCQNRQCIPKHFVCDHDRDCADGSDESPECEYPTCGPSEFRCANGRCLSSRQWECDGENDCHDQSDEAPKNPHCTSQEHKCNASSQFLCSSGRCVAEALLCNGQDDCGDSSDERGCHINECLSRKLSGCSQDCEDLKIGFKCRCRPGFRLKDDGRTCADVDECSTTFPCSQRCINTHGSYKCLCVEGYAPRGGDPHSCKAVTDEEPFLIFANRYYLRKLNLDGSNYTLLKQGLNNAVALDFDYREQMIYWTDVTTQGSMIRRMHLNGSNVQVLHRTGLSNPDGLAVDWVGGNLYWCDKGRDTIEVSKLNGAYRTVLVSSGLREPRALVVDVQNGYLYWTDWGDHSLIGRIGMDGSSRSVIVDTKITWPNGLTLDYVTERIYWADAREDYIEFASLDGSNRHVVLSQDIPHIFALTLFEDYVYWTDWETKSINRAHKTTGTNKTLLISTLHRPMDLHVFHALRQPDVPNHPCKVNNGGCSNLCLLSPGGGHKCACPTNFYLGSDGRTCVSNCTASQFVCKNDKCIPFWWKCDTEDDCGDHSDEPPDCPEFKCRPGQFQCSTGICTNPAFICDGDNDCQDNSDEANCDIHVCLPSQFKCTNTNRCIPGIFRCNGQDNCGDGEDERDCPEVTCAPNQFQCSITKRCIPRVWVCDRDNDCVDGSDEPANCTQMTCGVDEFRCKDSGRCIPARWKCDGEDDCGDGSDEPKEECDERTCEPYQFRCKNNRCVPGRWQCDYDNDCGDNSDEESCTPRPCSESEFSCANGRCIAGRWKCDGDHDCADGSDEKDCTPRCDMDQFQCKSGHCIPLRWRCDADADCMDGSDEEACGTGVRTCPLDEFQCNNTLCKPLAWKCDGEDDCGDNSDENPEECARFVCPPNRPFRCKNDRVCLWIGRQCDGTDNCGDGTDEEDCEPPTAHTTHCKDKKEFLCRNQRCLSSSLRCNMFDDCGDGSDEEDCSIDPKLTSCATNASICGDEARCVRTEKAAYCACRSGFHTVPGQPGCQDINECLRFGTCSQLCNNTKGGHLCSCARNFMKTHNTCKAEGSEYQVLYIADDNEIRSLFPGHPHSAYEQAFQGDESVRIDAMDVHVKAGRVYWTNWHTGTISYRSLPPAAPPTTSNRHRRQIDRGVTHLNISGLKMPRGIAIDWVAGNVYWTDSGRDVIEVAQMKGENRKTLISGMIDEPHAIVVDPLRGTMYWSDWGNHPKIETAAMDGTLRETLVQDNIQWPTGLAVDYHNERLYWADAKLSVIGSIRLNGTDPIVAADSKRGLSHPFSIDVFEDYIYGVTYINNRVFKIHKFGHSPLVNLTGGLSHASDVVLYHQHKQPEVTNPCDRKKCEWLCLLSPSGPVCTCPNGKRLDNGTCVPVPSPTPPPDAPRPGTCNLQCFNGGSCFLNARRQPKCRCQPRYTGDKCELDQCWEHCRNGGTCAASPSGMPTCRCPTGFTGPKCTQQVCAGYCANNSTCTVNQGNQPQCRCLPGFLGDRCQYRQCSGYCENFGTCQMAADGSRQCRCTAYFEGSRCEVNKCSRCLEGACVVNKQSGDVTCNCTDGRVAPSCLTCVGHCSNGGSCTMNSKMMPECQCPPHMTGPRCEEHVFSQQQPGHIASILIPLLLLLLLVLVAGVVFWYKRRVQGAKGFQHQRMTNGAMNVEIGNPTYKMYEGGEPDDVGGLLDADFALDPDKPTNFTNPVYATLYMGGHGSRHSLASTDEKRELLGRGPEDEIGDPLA

Kuptake, uptake into GM244 fibroblasts measured by GAA enzyme activity [1]: 19 nM
percent of RAP-GAA uptake into GM244 fibroblasts inhibited by free RAP [1]: 90%
uptake into GM244 fibroblasts relative to recombinant GAA (Vmax ratio) [1]: 60 fold
uptake into GM244 fibroblasts relative to recombinant GAA at 10 nM [1]: 25 fold
Kuptake ratio (fusion/enzyme), RAP-GAA against rhGAA, fibroblast (ratio (fusion/enzyme)) (LRP): 25
Uptake ratio (fusion/enzyme), RAP-GAA against rhGAA, C2C12 myoblast, 5 nM (ratio (fusion/enzyme)) (LRP): 18
Uptake ratio (fusion/enzyme), RAP-GAA against rhGAA, C6 glioma, 5 nM (ratio (fusion/enzyme)) (LRP): 8
Uptake ratio (fusion/enzyme), RAP-GAA against rhGAA, fibroblast, 5 nM (ratio (fusion/enzyme)) (LRP): 9
Uptake ratio (fusion/enzyme), RAP-GAA against rhGAA, fibroblast, 50 nM (ratio (fusion/enzyme)) (LRP): 37
Uptake ratio (fusion/enzyme), RAP-GAA against rhGAA, fibroblast, saturation (ratio (fusion/enzyme)) (LRP): 70
percent of RAP-GAA uptake into GM244 fibroblasts inhibited by mannose 6-phosphate [2]: 20%
Substance: RAP-GAA fusion (human RAP fused N-terminally to human alpha-glucosidase)

Reference: patent US20050042227A1
